This note sets out measurements from article PMC6309870.

The data set has as its target T1, HA-CEBPD (C/EBP delta, NF-IL6beta) (UniProt P49716 1-269).
T1 sequence: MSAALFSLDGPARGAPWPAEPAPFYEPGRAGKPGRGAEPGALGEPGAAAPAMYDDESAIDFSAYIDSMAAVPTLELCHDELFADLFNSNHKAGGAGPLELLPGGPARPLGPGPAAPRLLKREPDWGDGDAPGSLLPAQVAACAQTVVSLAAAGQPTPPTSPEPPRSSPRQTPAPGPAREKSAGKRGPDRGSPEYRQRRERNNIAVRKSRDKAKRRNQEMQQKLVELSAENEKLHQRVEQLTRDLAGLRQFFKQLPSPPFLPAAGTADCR
Kind of data set: EMSA, supershift.

B1: PTX3 promoter site 5 (dsDNA)
DNA 1: TAAAGGGTTGTGAAATAATAAC
DNA 2: GTTATTATTTCACAACCCTTTA
Regarding B1, the binding result is given as “binds”.

B2: PTX3 promoter site 1 (dsDNA)
DNA 1: TTTAATATTGTGCAACTTCCAC
DNA 2: GTGGAAGTTGCACAATATTAAA
In the case of B2, the binding result is “binds”.
